Experimental findings from article doi:10.1101/2020.08.09.242891 (bioRxiv, 2020) are described below.

The target in the assay is T1, FLAG-PKD1 (protein kinase D1) (UniProt Q15139 1-912).
T1 sequence (looked up): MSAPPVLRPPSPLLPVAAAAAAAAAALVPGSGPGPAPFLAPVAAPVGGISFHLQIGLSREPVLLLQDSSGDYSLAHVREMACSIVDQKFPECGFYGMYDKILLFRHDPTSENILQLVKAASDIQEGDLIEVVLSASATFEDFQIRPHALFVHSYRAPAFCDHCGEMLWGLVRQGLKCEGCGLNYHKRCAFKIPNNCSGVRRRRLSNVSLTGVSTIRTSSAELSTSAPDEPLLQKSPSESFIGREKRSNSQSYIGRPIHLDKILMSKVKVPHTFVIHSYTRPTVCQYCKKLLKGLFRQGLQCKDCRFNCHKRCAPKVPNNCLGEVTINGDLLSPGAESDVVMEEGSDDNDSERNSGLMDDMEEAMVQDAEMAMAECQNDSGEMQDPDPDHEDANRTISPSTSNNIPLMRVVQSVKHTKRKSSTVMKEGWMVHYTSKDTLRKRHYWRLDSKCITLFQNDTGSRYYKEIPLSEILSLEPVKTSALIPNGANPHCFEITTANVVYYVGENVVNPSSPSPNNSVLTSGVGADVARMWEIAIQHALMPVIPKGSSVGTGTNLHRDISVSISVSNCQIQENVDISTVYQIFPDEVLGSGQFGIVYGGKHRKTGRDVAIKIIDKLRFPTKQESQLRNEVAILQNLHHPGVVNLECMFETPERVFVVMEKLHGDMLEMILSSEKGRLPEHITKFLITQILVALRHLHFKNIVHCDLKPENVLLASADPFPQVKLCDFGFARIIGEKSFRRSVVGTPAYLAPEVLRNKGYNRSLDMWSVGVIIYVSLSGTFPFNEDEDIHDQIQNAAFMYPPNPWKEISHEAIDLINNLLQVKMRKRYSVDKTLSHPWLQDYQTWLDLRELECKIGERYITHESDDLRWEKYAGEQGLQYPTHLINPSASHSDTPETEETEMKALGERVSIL
The assay can be described thus: pull-down.

B1: GST-CBX8 (natural protein, UniProt Q9HC52 1-389, looked up)
chain: MELSAVGERVFAAEALLKRRIRKGRMEYLVKWKGWSQKYSTWEPEENILDARLLAAFEEREREMELYGPKKRGPKPKTFLLKAQAKAKAKTYEFRSDSARGIRIPYPGRSPQDLASTSRAREGLRNMGLSPPASSTSTSSTCRAEAPRDRDRDRDRDRERDRERERERERERERERERERGTSRVDDKPSSPGDSSKKRGPKPRKELPDPSQRPLGEPSAGLGEYLKGRKLDDTPSGAGKFPAGHSVIQLARRQDSDLVQCGVTSPSSAEATGKLAVDTFPARVIKHRAAFLEAKGQGALDPNGTRVRHGSGPPSSGGGLYRDMGAQGGRPSLIARIPVARILGDPEEESWSPSLTNLEKVVVTDVTSNFLTVTIKESNTDQGFFKEKR
On to B1, for which the binding result is reported as “binds”.
